# Key:
# [1] = tested on: HeLa Kyoto; assay: thermal stability score vs G1/S (z-score of summed log2 fold changes over temperatures); higher = more thermally stable than in G1/S
# [2] = tested on: HeLa Kyoto; assay: solubility in G1/S (NP-40 vs SDS abundance) (log2 ratio); higher = more soluble; conditions: cell cycle stage: G1/S
# [3] = tested on: HeLa Kyoto; assay: melting temperature (median over replicates), in situ; higher = more thermally stable
# [4] = tested on: HeLa Kyoto; assay: solubility change mitosis vs G1/S (difference of NP-40 vs SDS log2 ratios) (log2 ratio difference); higher = more soluble in mitosis
# [5] = cell cycle stage: early G1 (4.5 h after nocodazole release)
# 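For melting temperature (median over replicates), in situ in this document: HeLa Kyoto cells synchronized by double thymidine or nocodazole block, proteins quantified by TMT10plex mass spectrometry, three independent biological replicates.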
# 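For solubility change mitosis vs G1/S (difference of NP-40 vs SDS log2 ratios) in this document: synchronized HeLa Kyoto cells (double thymidine block for G1/S, nocodazole release for mitosis), protein amounts in NP-40 versus SDS lysates quantified by mass spectrometry, three biological replicates.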
# 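For solubility in G1/S (NP-40 vs SDS abundance) in this document: HeLa Kyoto cells arrested at G1/S by double thymidine block, proteins quantified by TMT10plex mass spectrometry in mild NP-40 versus SDS extracts, three biological replicates.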
# 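For thermal stability score vs G1/S (z-score of summed log2 fold changes over temperatures) in this document: synchronized HeLa Kyoto cells, proteins quantified by TMT10plex mass spectrometry, three biological replicates, mitosis taken 0.5 h after nocodazole release, G1/S directly after double thymidine block.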
Sequence,"thermal stability score [1, 5]",thermal stability score ([1]; cell cycle stage: mitosis),solubility in G1/S (log2) [2],melting temperature ([3]; cell cycle stage: G1/S),melting temperature ([3]; cell cycle stage: mitosis),solubility change mitosis (log2) [4]
MATKCGNCGPGYSTPLEAMKGPREEIVYLPCIYRNTGTEAPDYLATVDVDPKSPQYCQVIHRLPMPNLKDELHHSGWNTCSSCFGDSTKSRTKLVLPSLISSRIYVVDVGSEPRAPKLHKVIEPKDIHAKCELAFLHTSHCLASGEVMISSLGDVKGNGKGGFVLLDGETFEVKGTWERPGGAAPLGYDFWYQPRHNVMISTEWAAPNVLRDGFNPADVEAGLYGSHLYVWDWQRHEIVQTLSLKDGLIPLEIRFLHNPDAAQGFVGCALSSTIQRFYKNEGGTWSVEKVIQVPPKKVKGWLLPEMPGLITDILLSLDDRFLYFSNWLHGDLRQYDISDPQRPRLTGQLFLGGSIVKGGPVQVLEDEELKSQPEPLVVKGKRVAGGPQMIQLSLDGKRLYITTSLYSAWDKQFYPDLIREGSVMLQVDVDTVKGGLKLNPNFLVDFGKEPLGPALAHELRYPGGDCSSDIWI [SELENBP1],-0.479,-0.737,0.265,59.7 °C,60.9 °C,-0.131
MATKGGTVKAASGFNAMEDAQTLRKAMKGLGTDEDAIISVLAYRNTAQRQEIRTAYKSTIGRDLIDDLKSELSGNFEQVIVGMMTPTVLYDVQELRRAMKGAGTDEGCLIEILASRTPEEIRRISQTYQQQYGRSLEDDIRSDTSFMFQRVLVSLSAGGRDEGNYLDDALVRQDAQDLYEAGEKKWGTDEVKFLTVLCSRNRNHLLHVFDEYKRISQKDIEQSIKSETSGSFEDALLAIVKCMRNKSAYFAEKLYKSMKGLGTDDNTLIRVMVSRAEIDMLDIRAHFKRLYGKSLYSFIKGDTSGDYRKVLLVLCGGDD [ANXA4],5.77,4.03,0.48,50.1 °C,50.2 °C,0.0251
MATLITSTTAATAASGPLVDYLWMLILGFIIAFVLAFSVGANDVANSFGTAVGSGVVTLKQACILASIFETVGSVLLGAKVSETIRKGLIDVEMYNSTQGLLMAGSVSAMFGSAVWQLVASFLKLPISGTHCIVGATIGFSLVAKGQEGVKWSELIKIVMSWFVSPLLSGIMSGILFFLVRAFILHKADPVPNGLRALPVFYACTVGINLFSIMYTGAPLLGFDKLPLWGTILISVGCAVFCALIVWFFVCPRMKRKIEREIKCSPSESPLMEKKNSLKEDHEETKLSVGDIENKHPVSEVGPATVPLQAVVEERTVSFKLGDLEEAPERERLPSVDLKEETSIDSTVNGAVQLPNGNLVQFSQAVSNQINSSGHYQYHTVHKDSGLYKELLHKLHLAKVGDCMGDSGDKPLRRNNSYTSYTMAICGMPLDSFRAKEGEQKGEEMEKLTWPNADSKKRIRMDSYTSYCNAVSDLHSASEIDMSVKAEMGLGDRKGSNGSLEEWYDQDKPEVSLLFQFLQILTACFGSFAHGGNDVSNAIGPLVALYLVYDTGDVSSKVATPIWLLLYGGVGICVGLWVWGRRVIQTMGKDLTPITPSSGFSIELASALTVVIASNIGLPISTTHCKVGSVVSVGWLRSKKAVDWRLFRNIFMAWFVTVPISGVISAAIMAIFRYVILRM [SLC20A1],0.26,-0.79,-0.24,–,55.9 °C,-0.149
MATLLSHPQQRPPFLRQAIKIRRRRVRDLQDPPPQMAPEIQPPSHHFSPEQRALLYEDALYTVLHRLGHPEPNHVTEASELLRYLQEAFHVEPEEHQQTLQRVRELEKPIFCLKATVKQAKGILGKDVSGFSDPYCLLGIEQGVGVPGGSPGSRHRQKAVVRHTIPEEETHRTQVITQTLNPVWDETFILEFEDITNASFHLDMWDLDTVESVRQKLGELTDLHGLRRIFKEARKDKGQDDFLGNVVLRLQDLRCREDQWYPLEPRTETYPDRGQCHLQFQLIHKRRATSASRSQPSYTVHLHLLQQLVSHEVTQHEAGSTSWDGSLSPQAATVLFLHATQKDLSDFHQSMAQWLAYSRLYQSLEFPSSCLLHPITSIEYQWIQGRLKAEQQEELAASFSSLLTYGLSLIRRFRSVFPLSVSDSPARLQSLLRVLVQMCKMKAFGELCPNTAPLPQLVTEALQTGTTEWFHLKQQHHQPMVQGIPEAGKALLGLVQDVIGDLHQCQRTWDKIFHNTLKIHLFSMAFRELQWLVAKRVQDHTTVVGDVVSPEMGESLFQLYISLKELCQLRMSSSERDGVLALDNFHRWFQPAIPSWLQKTYNEALARVQRAVQMDELVPLGELTKHSTSAVDLSTCFAQISHTARQLDWPDPEEAFMITVKFVEDTCRLALVYCSLIKARARELSSGQKDQGQAANMLCVVVNDMEQLRLVIGKLPAQLAWEALEQRVGAVLEQGQLQNTLHAQLQSALAGLGHEIRTGVRTLAEQLEVGIAKHIQKLVGVRESVLPEDAILPLMKFLEVELCYMNTNLVQENFSSLLTLLWTHTLTVLVEAAASQRSSSLASNRLKIALQNLEICFHAEGCGLPPKALHTATFQALQRDLELQAASSRELIRKYFCSRIQQQAETTSEELGAVTVKASYRASEQKLRVELLSASSLLPLDSNGSSDPFVQLTLEPRHEFPELAARETQKHKKDLHPLFDETFEFLVPAEPCRKAGACLLLTVLDYDTLGADDLEGEAFLPLREVPGLSGSEEPGEVPQTRLPLTYPAPNGDPILQLLEGRKGDREAQVFVRLRRHRAKQASQHALRPAP [UNC13D],-0.00435,0.185,-0.0281,51.5 °C,51.4 °C,-0.0257
MATNFLAHEKIWFDKFKYDDAERRFYEQMNGPVAGASRQENGASVILRDIARARENIQKSLAGSSGPGASSGTSGDHGELVVRIASLEVENQSLRGVVQELQQAISKLEARLNVLEKSSPGHRATAPQTQHVSPMRQVEPPAKKPATPAEDDEDDDIDLFGSDNEEEDKEAAQLREERLRQYAEKKAKKPALVAKSSILLDVKPWDDETDMAQLEACVRSIQLDGLVWGASKLVPVGYGIRKLQIQCVVEDDKVGTDLLEEEITKFEEHVQSVDIAAFNKI [EEF1D],1.79,2.76,0.332,50.6 °C,50.6 °C,0.255
MATNWGSLLQDKQQLEELARQAVDRALAEGVLLRTSQEPTSSEVVSYAPFTLFPSLVPSALLEQAYAVQMDFNLLVDAVSQNAAFLEQTLSSTIKQDDFTARLFDIHKQVLKEGIAQTVFLGLNRSDYMFQRSADGSPALKQIEINTISASFGGLASRTPAVHRHVLSVLSKTKEAGKILSNNPSKGLALGIAKAWELYGSPNALVLLIAQEKERNIFDQRAIENELLARNIHVIRRTFEDISEKGSLDQDRRLFVDGQEIAVVYFRDGYMPRQYSLQNWEARLLLERSHAAKCPDIATQLAGTKKVQQELSRPGMLEMLLPGQPEAVARLRATFAGLYSLDVGEEGDQAIAEALAAPSRFVLKPQREGGGNNLYGEEMVQALKQLKDSEERASYILMEKIEPEPFENCLLRPGSPARVVQCISELGIFGVYVRQEKTLVMNKHVGHLLRTKAIEHADGGVAAGVAVLDNPYPV [GSS],-2.26,-1.74,0.238,58.6 °C,58.6 °C,-0.0933
MATPAGLERWVQDELHSVLGLSERHVAQFLIGTAQRCTSAEEFVQRLRDTDTLDLSGPARDFALRLWNKVPRKAVVEKPARAAEREARALLEKNRSYRLLEDSEESSEETVSRAGSSLQKKRKKRKHLRKKREEEEEEEASEKGKKKTGGSKQQTEKPESEDEWERTERERLQDLEERDAFAERVRQRDKDRTRNVLERSDKKAYEEAQKRLKMAEEDRKAMVPELRKKSRREYLAKREREKLEDLEAELADEEFLFGDVELSRHERQELKYKRRVRDLAREYRAAGEQEKLEATNRYHMPKETRGQPARAVDLVEEESGAPGEEQRRWEEARLGAASLKFGARDAASQEPKYQLVLEEEETIEFVRATQLQGDEEPSAPPTSTQAQQKESIQAVRRSLPVFPFREELLAAIANHQVLIIEGETGSGKTTQIPQYLFEEGYTNKGMKIACTQPRRVAAMSVAARVAREMGVKLGNEVGYSIRFEDCTSERTVLRYMTDGMLLREFLSEPDLASYSVVMVDEAHERTLHTDILFGLIKDVARFRPELKVLVASATMDTARFSTFFDDAPVFRIPGRRFPVDIFYTKAPEADYLEACVVSVLQIHVTQPPGDILVFLTGQEEIEAACEMLQDRCRRLGSKIRELLVLPIYANLPSDMQARIFQPTPPGARKVVVATNIAETSLTIEGIIYVLDPGFCKQKSYNPRTGMESLTVTPCSKASANQRAGRAGRVAAGKCFRLYTAWAYQHELEETTVPEIQRTSLGNVVLLLKSLGIHDLMHFDFLDPPPYETLLLALEQLYALGALNHLGELTTSGRKMAELPVDPMLSKMILASEKYSCSEEILTVAAMLSVNNSIFYRPKDKVVHADNARVNFFLPGGDHLVLLNVYTQWAESGYSSQWCYENFVQFRSMRRARDVREQLEGLLERVEVGLSSCQGDYIRVRKAITAGYFYHTARLTRSGYRTVKQQQTVFIHPNSSLFEQQPRWLLYHELVLTTKEFMRQVLEIESSWLLEVAPHYYKAKELEDPHAKKMPKKIGKTREELG [DHX16],1.68,2.22,-0.394,49.9 °C,50.8 °C,0.00704
MATPSAAFEALMNGVTSWDVPEDAVPCELLLIGEASFPVMVNDMGQVLIAASSYGRGRLVVVSHEDYLVEAQLTPFLLNAVGWLCSSPGAPIGVHPSLAPLAKILEGSGVDAKVEPEVKDSLGVYCIDAYNETMTEKLVKFMKCGGGLLIGGQAWDWANQGEDERVLFTFPGNLVTSVAGIYFTDNKGDTSFFKVSKKMPKIPVLVSCEDDLSDDREELLHGISELDISNSDCFPSQLLVHGALAFPLGLDSYHGCVIAAARYGRGRVVVTGHKVLFTVGKLGPFLLNAVRWLDGGRRGKVVVQTELRTLSGLLAVGGIDTSIEPNLTSDASVYCFEPVSEVGVKELQEFVAEGGGLFVGAQAWWWAFKNPGVSPLARFPGNLLLNPFGISITSQSLNPGPFRTPKAGIRTYHFRSTLAEFQVIMGRKRGNVEKGWLAKLGPDGAAFLQIPAEEIPAYMSVHRLLRKLLSRYRLPVATRENPVINDCCRGAMLSLATGLAHSGSDLSLLVPEIEDMYSSPYLRPSESPITVEVNCTNPGTRYCWMSTGLYIPGRQIIEVSLPEAAASADLKIQIGCHTDDLTRASKLFRGPLVINRCCLDKPTKSITCLWGGLLYIIVPQNSKLGSVPVTVKGAVHAPYYKLGETTLEEWKRRIQENPGPWGELATDNIILTVPTANLRTLENPEPLLRLWDEVMQAVARLGAEPFPLRLPQRIVADVQISVGWMHAGYPIMCHLESVQELINEKLIRTKGLWGPVHELGRNQQRQEWEFPPHTTEATCNLWCVYVHETVLGIPRSRANIALWPPVREKRVRIYLSKGPNVKNWNAWTALETYLQLQEAFGWEPFIRLFTEYRNQTNLPTENVDKMNLWVKMFSHQVQKNLAPFFEAWAWPIQKEVATSLAYLPEWKENIMKLYLLTQMPH [TCAF1],0.502,2.06,-0.143,49.9 °C,49.8 °C,-0.185
MATRQRESSITSCCSTSSCDADDEGVRGTCEDASLCKRFAVSIGYWHDPYIQHFVRLSKERKAPEINRGYFARVHGVSQLIKAFLRKTECHCQIVNLGAGMDTTFWRLKDEDLLPSKYFEVDFPMIVTRKLHSIKCKPPLSSPILELHSEDTLQMDGHILDSKRYAVIGADLRDLSELEEKLKKCNMNTQLPTLLIAECVLVYMTPEQSANLLKWAANSFERAMFINYEQVNMGDRFGQIMIENLRRRQCDLAGVETCKSLESQKERLLSNGWETASAVDMMELYNRLPRAEVSRIESLEFLDEMELLEQLMRHYCLCWATKGGNELGLKEITY [LCMT1],0.211,0.493,0.181,52.1 °C,53.5 °C,-0.123
MATSPQKSPSVPKSPTPKSPPSRKKDDSFLGKLGGTLARRKKAKEVSELQEEGMNAINLPLSPIPFELDPEDTMLEENEVRTMVDPNSRSDPKLQELMKVLIDWINDVLVGERIIVKDLAEDLYDGQVLQKLFEKLESEKLNVAEVTQSEIAQKQKLQTVLEKINETLKLPPRSIKWNVDSVHAKSLVAILHLLVALSQYFRAPIRLPDHVSIQVVVVQKREGILQSRQIQEEITGNTEALSGRHERDAFDTLFDHAPDKLNVVKKTLITFVNKHLNKLNLEVTELETQFADGVYLVLLMGLLEGYFVPLHSFFLTPDSFEQKVLNVSFAFELMQDGGLEKPKPRPEDIVNCDLKSTLRVLYNLFTKYRNVE [PARVA],1.2,1.23,0.479,51 °C,50.8 °C,-0.0689

# — the supplement of paper PMC5998384
